Target: the molecule itself
Test: crystal structure; hanging drop vapor diffusion, 26% PEG 3350, 50 mM Tris-HCl pH 8.0; space group P212121; one trimer in the asymmetric unit; 1.1 Å

B1: bacteriophage HS1 tail needle knob (domain or fragment)
chain: RISALEYATTRKKSEVVYSGVSVTIPTAPTNLVSLLKTLTPSSGTLAPFFDTVNNKMVVFNENKTLFFKLSIVGTWPSGTANRSMQLTFSGSVPDTLVSSRNSATTTDNILLATFFSVDKDGFLATNGSTLTIQSNGAAFTATTIKIIAEQ
  stoichiometry N: 3
